Source: PMC5528877

B1: V-set and transmembrane domain-containing protein 5 (Vstm5): N43,87,101,108A (protein)
parent chain: MRPLRCGERTQGIPLGLLAFWVTAARCLQSQGVSLYIPQSAINATVQQDILLSVDYICHGVPTIEWKYTPNWGVQRIVEWKPGTPANVSQSHRDRVCTFDNGSIQLFNVSVKDSGYYIVTVTEHPGSSQSGTILLRVSEIRYEDLHFVAVFFALLAAVAVVLISLMWVCNQCAYKFQRKRRYKLKESTTEEIEMKEVEC
B2: V-set and transmembrane domain-containing protein 5 (Vstm5): N101A (protein)
parent chain: B1 parent chain
B3: V-set and transmembrane domain-containing protein 5 (Vstm5): N87A (protein)
parent chain: B1 parent chain
B4: V-set and transmembrane domain-containing protein 5 (Vstm5): N43A (protein)
parent chain: B1 parent chain
B5: V-set and transmembrane domain-containing protein 5 (Vstm5): N43,87A (protein)
parent chain: B1 parent chain
B6: V-set and transmembrane domain-containing protein 5 (Vstm5): N108A (protein)
parent chain: B1 parent chain
B7: V-set and transmembrane domain-containing protein 5 (Vstm5): N87,101,108A (protein)
parent chain: B1 parent chain
B8: V-set and transmembrane domain-containing protein 5 (Vstm5): N101,108A (protein)
parent chain: B1 parent chain
B9: V-set and transmembrane domain-containing protein 5 (Vstm5): tunicamycin (protein)
parent chain: B1 parent chain

Key:
[1] = western blot of total lysate, COS-7; settings: glycan lost; control: WT Vstm5
[2] = immunofluorescence with ER marker PDI, COS-7; settings: glycan lost
[3] = surface biotinylation, pull-down, western, COS-7; settings: glycan lost; control: WT Vstm5

| Protein | expression_or_secretion [1] | localisation_or_trafficking ([2]; control: WT Vstm5) | localisation_or_trafficking, fold_change [3] | localisation_or_trafficking ([2]; control: DMSO-treated) |
| --- | --- | --- | --- | --- |
| B1 | no change | changes | decreases |  |
| B2 | no change |  | decreases |  |
| B3 | no change |  | increases |  |
| B4 | no change |  | decreases |  |
| B5 | no change |  | decreases |  |
| B6 | no change |  | increases |  |
| B7 | no change |  | decreases |  |
| B8 | no change |  | no change |  |
| B9 |  |  |  | changes |
